In patent publication US20250332277A1, “PROTEIN TYROSINE KINASE 7 ANTIBODIES AND ANTIBODY-DRUG CONJUGATES” (Eli Lilly and Company, priority 2024, published 2025):

Molecular target: human PTK-7 on cells (OV90-PTK-7, NCI-H446, OVCAR-3) (human) (UniProt Q13308)
Experiment: cell-based or functional assay

Sequence of human PTK-7 on cells (OV90-PTK-7, NCI-H446, OVCAR-3) (human) (Q13308 31-1070 limits assumed): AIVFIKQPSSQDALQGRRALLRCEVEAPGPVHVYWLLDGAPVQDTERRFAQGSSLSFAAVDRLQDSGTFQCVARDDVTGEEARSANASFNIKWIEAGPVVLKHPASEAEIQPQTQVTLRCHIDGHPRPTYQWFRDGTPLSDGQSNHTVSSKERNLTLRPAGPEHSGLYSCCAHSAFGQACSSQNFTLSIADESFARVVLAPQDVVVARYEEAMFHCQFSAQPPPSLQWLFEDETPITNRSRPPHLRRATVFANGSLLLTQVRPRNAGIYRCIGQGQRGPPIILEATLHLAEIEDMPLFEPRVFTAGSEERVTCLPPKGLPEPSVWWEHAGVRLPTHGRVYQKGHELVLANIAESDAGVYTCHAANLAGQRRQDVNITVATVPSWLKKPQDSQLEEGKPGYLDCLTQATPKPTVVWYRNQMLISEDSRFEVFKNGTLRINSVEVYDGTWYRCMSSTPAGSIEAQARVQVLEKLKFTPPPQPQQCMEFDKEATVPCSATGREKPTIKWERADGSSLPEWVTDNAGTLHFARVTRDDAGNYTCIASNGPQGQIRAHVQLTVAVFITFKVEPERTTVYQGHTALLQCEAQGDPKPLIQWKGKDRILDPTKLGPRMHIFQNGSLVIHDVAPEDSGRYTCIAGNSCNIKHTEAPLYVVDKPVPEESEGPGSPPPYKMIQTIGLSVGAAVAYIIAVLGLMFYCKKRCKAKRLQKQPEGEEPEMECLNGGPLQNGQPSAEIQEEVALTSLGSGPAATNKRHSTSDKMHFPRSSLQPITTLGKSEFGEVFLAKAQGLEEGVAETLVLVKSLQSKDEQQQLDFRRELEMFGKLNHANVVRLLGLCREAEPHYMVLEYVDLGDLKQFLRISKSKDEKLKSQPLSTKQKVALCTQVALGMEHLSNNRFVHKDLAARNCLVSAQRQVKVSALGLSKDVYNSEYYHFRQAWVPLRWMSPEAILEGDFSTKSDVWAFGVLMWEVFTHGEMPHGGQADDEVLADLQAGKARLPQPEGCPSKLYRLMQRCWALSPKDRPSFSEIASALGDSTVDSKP

B1: Cofetuzumab-Pelidotin (protein, INN chains, looked up)
VH: QVQLVQSGPEVKKPGASVKVSCKASGYTFTDYAVHWVRQAPGKRLEWIGVISTYNDYTYNNQDFKGRVTMTRDTSASTAYMELSRLRSEDTAVYYCARGNSYFYALDYWGQGTSVTVSS
VL: EIVLTQSPATLSLSPGERATLSCRASESVDSYGKSFMHWYQQKPGQAPRLLIYRASNLESGIPARFSGSGSGTDFTLTISSLEPEDFAVYYCQQSNEDPWTFGGGTKLEIK
modifications: pelidotin auristatin payload
**Q.** Which results are given for B1?
**A.** Cytotoxicity IC50, OV90-PTK-7 cells (CellTiter-Glo, 5 days): 0.0331 pM; Cytotoxicity IC50, OVCAR-3 cells (CellTiter-Glo, 7 days): 2.53 nM
